Blank lines part the entries; values can stand above or below the substance they belong to.
Key:
Experiment in all cases: SEC; analytical size-exclusion chromatography, Superdex 75 10/300GL, calibrated with Bio-Rad gel filtration standard, 0.5 mL/min, 100 mM TEA pH 7.4, 10 mM EDTA, 1 mM DTT; dimer of identical subunits
[1] = biological target: chloroplast triosephosphate isomerase from Arabidopsis thaliana, without the predicted chloroplast targeting sequence (Arabidopsis thaliana)
[2] = biological target: cytoplasmic triosephosphate isomerase from Arabidopsis thaliana (Arabidopsis thaliana) (UniProt P48491)
[3] = biological target: pdTPI-C15S (Arabidopsis thaliana)
[4] = biological target: pdTPI-C15S/C89S (Arabidopsis thaliana)
[5] = biological target: pdTPI-C89S (Arabidopsis thaliana)

Substance: cytoplasmic triosephosphate isomerase from Arabidopsis thaliana (from UniProt P48491 1-254) (enzyme)
- stoichiometry N [2]: 2

Substance: pdTPI-C15S/C89S (enzyme)
- stoichiometry N [4]: 2

Substance: pdTPI-C89S (enzyme)
- stoichiometry N [5]: 2

Next, values leading:

- stoichiometry N [1]: 2
Substance: chloroplast triosephosphate isomerase from Arabidopsis thaliana, without the predicted chloroplast targeting sequence (enzyme)

- stoichiometry N [3]: 2
Substance: pdTPI-C15S (enzyme)

From PMC5138414, “Structural Basis for Redox Regulation of Cytoplasmic and Chloroplastic Triosephosphate Isomerases from Arabidopsis thaliana” (Frontiers in Plant Science, 2016)
